Experimental data published in patent US20170165338A1.

The binders below were run against HLA-A*24 (human) (assay: UV-exchange b2m ELISA).

Binder	peptide exchange yield
HYPPVQVLF	50 to 75%
DYLKGLASF	> 75%
EYNQWFTKL	50 to 75%
YYGPSLFLL	50 to 75%
YYEVHKELF	> 75%
TYELRYFQI	> 75%
YYVESGKLF	> 75%
VYVGGGQIIHL	50 to 75%
IYATEAHVF	50 to 75%
NYYEVHKELF	50 to 75%
QYLGQIQHI	50 to 75%
LFIPSSKLLFL	50 to 75%
YYKSTSSAF	50 to 75%
YFIDSTNLKTHF	50 to 75%
IYLVSIPEL	> 75%
LYIDRPLPYL	50 to 75%
AYTLIAPNI	50 to 75%

Continued, values first:

peptide exchange yield	Binder
50 to 75%	TYKDEGNDYF
20 to 49%	AYVVFVSTL
> 75%	IYSWILDHF
50 to 75%	LYITEPKTI
> 75%	DYTTWTALL
50 to 75%	TFSVSSHLF
20 to 49%	VYEDQVGKF
> 75%	NYINRILKL
> 75%	TYSVSFPMF
50 to 75%	RYAEEVGIF
50 to 75%	KFSSFSLFF
> 75%	VYQGHTALL
50 to 75%	VFTRVSSFL
> 75%	VYWDSAGAAHF
20 to 49%	PYRLIFEKF
50 to 75%	EYSLFPGQVVI
> 75%	KYQDILETI
> 75%	VYTLDIPVL
